Measurements reported in publication PMC5705597, “Molecular architecture of potassium chloride co-transporter KCC2” (Scientific Reports, 2017).

Columns and labels:
KCC2 = target: T1, KCC2 (Homo sapiens, UniProt Q9H2X9); test: SPR (Biacore S200), steady-state Langmuir fit on immobilized purified KCC2; format: binding
T1 construct: gene SLC12A5; N-terminal tagged Flag-Avi-His-KCC2, residues 1–1116 of NP_065759 (human KCC2 isoform 2), purified full length
T1 sequence (Q9H2X9 1-1116 isoform Q9H2X9-2): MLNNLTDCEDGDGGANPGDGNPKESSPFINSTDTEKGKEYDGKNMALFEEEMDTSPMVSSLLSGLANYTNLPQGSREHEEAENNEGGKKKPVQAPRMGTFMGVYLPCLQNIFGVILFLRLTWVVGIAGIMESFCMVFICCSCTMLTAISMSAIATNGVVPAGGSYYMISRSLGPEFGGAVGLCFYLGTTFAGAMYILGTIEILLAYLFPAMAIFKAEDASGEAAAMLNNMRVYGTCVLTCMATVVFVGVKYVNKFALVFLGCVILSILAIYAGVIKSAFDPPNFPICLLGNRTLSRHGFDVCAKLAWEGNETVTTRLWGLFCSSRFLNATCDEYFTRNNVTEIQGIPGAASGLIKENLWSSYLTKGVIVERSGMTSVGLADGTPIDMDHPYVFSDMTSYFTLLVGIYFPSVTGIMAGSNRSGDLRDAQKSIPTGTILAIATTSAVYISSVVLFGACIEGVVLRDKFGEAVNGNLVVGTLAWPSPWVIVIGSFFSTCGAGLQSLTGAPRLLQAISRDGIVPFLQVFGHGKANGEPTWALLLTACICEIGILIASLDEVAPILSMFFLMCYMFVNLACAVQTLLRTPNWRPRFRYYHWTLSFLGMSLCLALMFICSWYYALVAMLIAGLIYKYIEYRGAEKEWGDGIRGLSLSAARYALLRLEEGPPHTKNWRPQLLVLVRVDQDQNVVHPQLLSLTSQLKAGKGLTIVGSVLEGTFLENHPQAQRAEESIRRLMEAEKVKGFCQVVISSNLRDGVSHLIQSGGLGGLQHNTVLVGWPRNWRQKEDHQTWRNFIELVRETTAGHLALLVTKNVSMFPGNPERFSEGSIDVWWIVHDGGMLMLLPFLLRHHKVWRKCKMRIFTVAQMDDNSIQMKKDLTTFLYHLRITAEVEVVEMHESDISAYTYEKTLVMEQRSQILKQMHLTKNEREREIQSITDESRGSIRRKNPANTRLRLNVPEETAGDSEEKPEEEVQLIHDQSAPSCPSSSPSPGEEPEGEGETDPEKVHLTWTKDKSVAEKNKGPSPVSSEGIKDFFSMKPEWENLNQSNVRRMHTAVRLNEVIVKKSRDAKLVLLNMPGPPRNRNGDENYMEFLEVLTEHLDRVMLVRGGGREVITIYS
From the text: SPR (Biacore S200), steady-state Langmuir fit on immobilized purified KCC2 on KCC2 | Concentration-dependent binding of VU0463271 (blue diamonds) and non-specific control compound (red circles) on immobilized purified KCC2.

[1] = target: Flag-Avi-His-KCC2 (human potassium chloride co-transporter KCC2, N-terminally tagged) (human) (UniProt Q9H2X9); test: cross-linking; purified KCC2 (5 µg) with glutaraldehyde 0-0.1% for 30 min at 4 °C, with or without DTT; SDS-PAGE and Western blot
[2] = target: Flag-Avi-His-KCC2 (human potassium chloride co-transporter KCC2, N-terminally tagged) (human) (UniProt Q9H2X9); test: negative stain electron microscopy; gel filtration fractions of KCC2 monomers and dimers, 40 µg/ml in PBS, CALX-R3 1.5 mM, DDM 0.6 mM; 2% uranyl acetate; 2-D classes and 3-D models
[3] = target: Flag-Avi-His-KCC2 (human potassium chloride co-transporter KCC2, N-terminally tagged) (human) (UniProt Q9H2X9); test: SEC; 50 µl purified KCC2 at 1 mg/ml on Superdex 200 Increase 5/150 GL, PBS, CALX-R3 1.5 mM, DDM 0.6 mM; fractions analysed by Clear Native PAGE and Western blot
[4] = target: Flag-Avi-His-KCC2 (human potassium chloride co-transporter KCC2, N-terminally tagged) (human) (UniProt Q9H2X9); test: native gel or EMSA; purified KCC2 in CALX-R3/DDM on 4-15% Clear Native PAGE (cathode buffer 7.5 mM imidazole, 0.05% deoxycholate, 0.01% DDM), 4 °C, Western blot with KCC2 antibody; with or without a freeze-thaw cycle
[5] = target: T2, recombinant mouse KCC2 (mouse), Q91V14; test: as above; details: remark: other sources report otherwise
T2 chain: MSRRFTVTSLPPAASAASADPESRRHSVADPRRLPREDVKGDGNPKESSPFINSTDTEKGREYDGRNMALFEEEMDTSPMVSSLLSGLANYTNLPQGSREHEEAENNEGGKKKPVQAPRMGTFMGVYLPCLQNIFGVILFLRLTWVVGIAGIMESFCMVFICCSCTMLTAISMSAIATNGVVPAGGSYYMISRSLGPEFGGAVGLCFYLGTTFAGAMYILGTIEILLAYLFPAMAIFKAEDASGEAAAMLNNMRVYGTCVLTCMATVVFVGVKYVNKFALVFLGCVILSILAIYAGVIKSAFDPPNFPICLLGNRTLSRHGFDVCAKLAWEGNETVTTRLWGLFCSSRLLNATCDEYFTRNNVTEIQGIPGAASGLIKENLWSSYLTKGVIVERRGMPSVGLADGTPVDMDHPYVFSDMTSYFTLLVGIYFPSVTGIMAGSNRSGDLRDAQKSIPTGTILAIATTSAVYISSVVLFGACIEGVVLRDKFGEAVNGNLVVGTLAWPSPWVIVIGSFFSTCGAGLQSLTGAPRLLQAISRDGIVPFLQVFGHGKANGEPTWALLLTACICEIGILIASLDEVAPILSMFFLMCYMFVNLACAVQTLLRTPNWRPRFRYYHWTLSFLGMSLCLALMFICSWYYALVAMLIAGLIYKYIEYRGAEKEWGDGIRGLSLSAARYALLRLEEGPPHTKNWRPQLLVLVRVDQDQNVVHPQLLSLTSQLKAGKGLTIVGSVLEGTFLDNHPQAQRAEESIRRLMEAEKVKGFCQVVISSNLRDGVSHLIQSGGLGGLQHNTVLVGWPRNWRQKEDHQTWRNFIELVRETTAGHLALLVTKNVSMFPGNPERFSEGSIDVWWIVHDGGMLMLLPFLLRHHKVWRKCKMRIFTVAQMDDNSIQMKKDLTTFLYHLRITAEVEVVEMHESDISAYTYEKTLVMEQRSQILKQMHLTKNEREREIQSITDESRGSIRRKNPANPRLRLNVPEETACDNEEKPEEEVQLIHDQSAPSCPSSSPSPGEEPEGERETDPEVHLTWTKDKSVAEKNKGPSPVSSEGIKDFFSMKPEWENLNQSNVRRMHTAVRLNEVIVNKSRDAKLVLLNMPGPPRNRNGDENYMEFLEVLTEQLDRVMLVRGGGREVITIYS

Q: Which Kd (KCC2) does the source give for Cc1csc(N(C(=O)CSc2ccc(-c3ccccc3)nn2)C2CC2)n1 [VU0463271] here?
A: 3 ± 2 µM

Q: Which stoichiometry N [1] does the source give for “Flag-Avi-His-KCC2 (human potassium chloride co-transporter KCC2, N-terminally tagged) (from UniProt Q9H2X9-2 1-1116) (natural protein)” here?
A: 2

Q: What about the stoichiometry N [2] of the same molecule?
A: 2

Q: What about the stoichiometry N [3] of the same molecule?
A: 2

Q: What about the stoichiometry N [4] of the same molecule?
A: 2

B1: recombinant mouse KCC2, Q91V14 1-1138 (natural protein)
chain: MSRRFTVTSLPPAASAASADPESRRHSVADPRRLPREDVKGDGNPKESSPFINSTDTEKGREYDGRNMALFEEEMDTSPMVSSLLSGLANYTNLPQGSREHEEAENNEGGKKKPVQAPRMGTFMGVYLPCLQNIFGVILFLRLTWVVGIAGIMESFCMVFICCSCTMLTAISMSAIATNGVVPAGGSYYMISRSLGPEFGGAVGLCFYLGTTFAGAMYILGTIEILLAYLFPAMAIFKAEDASGEAAAMLNNMRVYGTCVLTCMATVVFVGVKYVNKFALVFLGCVILSILAIYAGVIKSAFDPPNFPICLLGNRTLSRHGFDVCAKLAWEGNETVTTRLWGLFCSSRLLNATCDEYFTRNNVTEIQGIPGAASGLIKENLWSSYLTKGVIVERRGMPSVGLADGTPVDMDHPYVFSDMTSYFTLLVGIYFPSVTGIMAGSNRSGDLRDAQKSIPTGTILAIATTSAVYISSVVLFGACIEGVVLRDKFGEAVNGNLVVGTLAWPSPWVIVIGSFFSTCGAGLQSLTGAPRLLQAISRDGIVPFLQVFGHGKANGEPTWALLLTACICEIGILIASLDEVAPILSMFFLMCYMFVNLACAVQTLLRTPNWRPRFRYYHWTLSFLGMSLCLALMFICSWYYALVAMLIAGLIYKYIEYRGAEKEWGDGIRGLSLSAARYALLRLEEGPPHTKNWRPQLLVLVRVDQDQNVVHPQLLSLTSQLKAGKGLTIVGSVLEGTFLDNHPQAQRAEESIRRLMEAEKVKGFCQVVISSNLRDGVSHLIQSGGLGGLQHNTVLVGWPRNWRQKEDHQTWRNFIELVRETTAGHLALLVTKNVSMFPGNPERFSEGSIDVWWIVHDGGMLMLLPFLLRHHKVWRKCKMRIFTVAQMDDNSIQMKKDLTTFLYHLRITAEVEVVEMHESDISAYTYEKTLVMEQRSQILKQMHLTKNEREREIQSITDESRGSIRRKNPANPRLRLNVPEETACDNEEKPEEEVQLIHDQSAPSCPSSSPSPGEEPEGERETDPEVHLTWTKDKSVAEKNKGPSPVSSEGIKDFFSMKPEWENLNQSNVRRMHTAVRLNEVIVNKSRDAKLVLLNMPGPPRNRNGDENYMEFLEVLTEQLDRVMLVRGGGREVITIYS
Q: B1 was tested. Which stoichiometry N [5] did it give?
A: 2
